Results taken from patent US20220267435A1.

Target: CD19 (UniProt P15391)
Experiment: cell-based or functional assay

Sequence of UniProt P15391 (P15391 20-556 limits assumed): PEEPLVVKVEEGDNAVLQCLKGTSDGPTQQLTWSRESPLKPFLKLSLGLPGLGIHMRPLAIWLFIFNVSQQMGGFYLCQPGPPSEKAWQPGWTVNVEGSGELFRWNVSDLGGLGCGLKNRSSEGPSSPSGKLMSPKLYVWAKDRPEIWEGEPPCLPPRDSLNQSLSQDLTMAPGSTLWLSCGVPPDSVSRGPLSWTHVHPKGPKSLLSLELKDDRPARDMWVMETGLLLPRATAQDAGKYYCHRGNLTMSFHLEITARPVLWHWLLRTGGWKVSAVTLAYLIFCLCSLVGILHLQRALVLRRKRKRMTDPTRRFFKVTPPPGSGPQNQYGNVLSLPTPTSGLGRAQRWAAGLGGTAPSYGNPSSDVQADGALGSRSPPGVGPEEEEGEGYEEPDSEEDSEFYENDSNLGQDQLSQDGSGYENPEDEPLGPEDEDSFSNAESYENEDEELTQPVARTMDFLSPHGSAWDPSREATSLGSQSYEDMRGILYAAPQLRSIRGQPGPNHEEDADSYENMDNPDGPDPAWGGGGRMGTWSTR

FMC63-BG concentration at the peak of SNAP-synNotch activation (TagBFP): 0.25 µg/mL
FMC63-BG concentration at which SNAP-synNotch activation is completely inhibited (hook effect): 10 µg/mL
TagBFP MFI; 0.01 million SNAP-synNotch cells, 0.01 million Raji cells, 0.1 µg/mL FMC63-BG, 48 h: 1820 MFI
TagBFP MFI; 0.01 million SNAP-synNotch cells, 0.01 million Raji cells, 1.0 µg/mL FMC63-BG, 48 h: 806 MFI
TagBFP MFI; 0.01 million SNAP-synNotch cells, 0.1 million Raji cells, 0.1 µg/mL FMC63-BG, 48 h: 3400 MFI
TagBFP MFI; 0.01 million SNAP-synNotch cells, 0.1 million Raji cells, 1.0 µg/mL FMC63-BG, 48 h: 2470 MFI
TagBFP MFI; 0.01 million SNAP-synNotch cells, 0.5 million Raji cells, 0.1 µg/mL FMC63-BG, 48 h: 1810 MFI
TagBFP MFI; 0.01 million SNAP-synNotch cells, 0.5 million Raji cells, 1.0 µg/mL FMC63-BG, 48 h: 5350 MFI
TagBFP MFI; 0.01 million SNAP-synNotch cells, 1 million Raji cells, 0.1 µg/mL FMC63-BG, 48 h: 1520 MFI
TagBFP MFI; 0.01 million SNAP-synNotch cells, 1 million Raji cells, 1.0 µg/mL FMC63-BG, 48 h: 4430 MFI
TagBFP MFI; 0.1 million SNAP-synNotch cells, 0.01 million Raji cells, 0.1 µg/mL FMC63-BG, 48 h: 1020 MFI
TagBFP MFI; 0.1 million SNAP-synNotch cells, 0.01 million Raji cells, 1.0 µg/mL FMC63-BG, 48 h: 984 MFI
TagBFP MFI; 0.1 million SNAP-synNotch cells, 0.1 million Raji cells, 0.1 µg/mL FMC63-BG, 48 h: 2540 MFI
TagBFP MFI; 0.1 million SNAP-synNotch cells, 0.1 million Raji cells, 1.0 µg/mL FMC63-BG, 48 h: 2260 MFI
TagBFP MFI; 0.1 million SNAP-synNotch cells, 0.5 million Raji cells, 0.1 µg/mL FMC63-BG, 48 h: 1940 MFI
TagBFP MFI; 0.1 million SNAP-synNotch cells, 0.5 million Raji cells, 1.0 µg/mL FMC63-BG, 48 h: 4570 MFI
TagBFP MFI; 0.1 million SNAP-synNotch cells, 1 million Raji cells, 0.1 µg/mL FMC63-BG, 48 h: 1180 MFI
TagBFP MFI; 0.1 million SNAP-synNotch cells, 1 million Raji cells, 1.0 µg/mL FMC63-BG, 48 h: 4220 MFI
TagBFP MFI; 0.5 million SNAP-synNotch cells, 0.01 million Raji cells, 0.1 µg/mL FMC63-BG, 48 h: 732 MFI
TagBFP MFI; 0.5 million SNAP-synNotch cells, 0.01 million Raji cells, 1.0 µg/mL FMC63-BG, 48 h: 667 MFI
TagBFP MFI; 0.5 million SNAP-synNotch cells, 0.1 million Raji cells, 0.1 µg/mL FMC63-BG, 48 h: 1570 MFI
TagBFP MFI; 0.5 million SNAP-synNotch cells, 0.1 million Raji cells, 1.0 µg/mL FMC63-BG, 48 h: 1490 MFI
TagBFP MFI; 0.5 million SNAP-synNotch cells, 0.5 million Raji cells, 0.1 µg/mL FMC63-BG, 48 h: 1120 MFI
TagBFP MFI; 0.5 million SNAP-synNotch cells, 0.5 million Raji cells, 1.0 µg/mL FMC63-BG, 48 h: 2680 MFI
TagBFP MFI; 0.5 million SNAP-synNotch cells, 1 million Raji cells, 0.1 µg/mL FMC63-BG, 48 h: 955 MFI
TagBFP MFI; 0.5 million SNAP-synNotch cells, 1 million Raji cells, 1.0 µg/mL FMC63-BG, 48 h: 2880 MFI
TagBFP MFI; 1 million SNAP-synNotch cells, 0.01 million Raji cells, 0.1 µg/mL FMC63-BG, 48 h: 550 MFI
TagBFP MFI; 1 million SNAP-synNotch cells, 0.01 million Raji cells, 1.0 µg/mL FMC63-BG, 48 h: 519 MFI
TagBFP MFI; 1 million SNAP-synNotch cells, 0.1 million Raji cells, 0.1 µg/mL FMC63-BG, 48 h: 1160 MFI
TagBFP MFI; 1 million SNAP-synNotch cells, 0.1 million Raji cells, 1.0 µg/mL FMC63-BG, 48 h: 1220 MFI
TagBFP MFI; 1 million SNAP-synNotch cells, 0.5 million Raji cells, 0.1 µg/mL FMC63-BG, 48 h: 979 MFI
TagBFP MFI; 1 million SNAP-synNotch cells, 0.5 million Raji cells, 1.0 µg/mL FMC63-BG, 48 h: 1810 MFI
TagBFP MFI; 1 million SNAP-synNotch cells, 1 million Raji cells, 0.1 µg/mL FMC63-BG, 48 h: 748 MFI
TagBFP MFI; 1 million SNAP-synNotch cells, 1 million Raji cells, 1.0 µg/mL FMC63-BG, 48 h: 1970 MFI
lowest FMC63-BG concentration with significant SNAP-synNotch activation (TagBFP): 0.04 µg/mL
Substance: BG-conjugated FMC63 antibody
